This is an account of results in the DeepSol protein solubility set.

This series in a line: soluble on expression in E. coli; label from the status in PepcDB or PDB records.
For “YKEEDSTVSILPTSLPQIHRANMLAQGSPAASKISPLVTKKSKTRWHFGIRSRSYPLDVMGEIYIALKNLGAEWAKPSEEDLWTIKLRWKYDIGNKTNTNEKIPDLMKMVIQLFQIETNNYLVDFKFDGWESSYGDDTTVSNISEDEMSTFSAYPFLHLTTKLIMELAVNS”, the “soluble on expression in E. coli” value is listed as “soluble”.

With “MAAPSMKERQACWGARDLYWRCLDDNAEDAARCQKLRSSFEASCPQQWIKYFDKRRDYLKFKEKFEAGGFQSSQSTENS”, the “soluble on expression in E. coli” value is reported as “soluble”.

With “GPGSMVLIECKRLPKDEYSKDYDVFLVSIPGVTNIGEATDVLQQMRNTRVRIKWMMAAAKQLAKDFCSEEQQHHLLGPVADAERYMSLERAERRLTCTQKELDDLVDAFKGGAMILFPAECSGTDAVKRLAQLLDDDNTTDTERSKAHRLLSIIDDGATTEDILQGVATMWWSGKQLDRAADFTKYVGKNEKTKITVKLTAKDAPAPPREPALDAKAQSELMAYYFRKQEEMKKMIEDEDLSYGNSAWANPQGLKSQLHGFDSVKFKPG”, the “soluble on expression in E. coli” value is “soluble”. Next, “MGSDKIHHHHHHMKVLVTGATGFIGRQVVHRLREAGAELRLASRHPERLGPGQDAMRMPDVDAPTAAFLALARGVTDVVHCAGLNNDEGNATEADFRAANAELSARLAQAAAEQASGRFIQLSSIRAVIGARVSATIDEDTIPDPQCAYGRSKREAEIRVLDAYASHGRSDATVLRLPPVYGTGMQGNLATLMRMADTGLPLPTGALTGTRSLLSAQSTAGAIWHLLSLSGRLRPIHVASDVPPVSIADIVDAFRDGFGRPTRLMAVPAGPLRIAAILLGKRTSWDSLTASQICDPSLLVSEGWLPETGTLERLAEIARLGDAQSPPLR”: “not soluble”.

Take “MGSDKIHHHHHHMEWIDRFIELLFYGEKEEAYKLKFDHFPRRLYKYEVIDEKRLLALKNNKIWFANPDKLNDPFDSCGVFFDKKVLCNYTNKKSIDEYIDGLKRNIKVCCFSEELNSMPMWAHYANNHTGICIEYDFSKLNYMSEFSKYIFPIRYETEKYDITKFLERIFKEEAEERMYLLFFLMQIKHVSWSYEKEWRIILKAYEDKNEGIVCPIKPEGIYLGLNCSEENKEKLKRIVVENIKCPIYEIEKTEGKLFEFKTKNVSEKNYK”: the “soluble on expression in E. coli” value is recorded as “not soluble”. For “MSALDPQASARVARTPDAEPEAVDASAAGESAGLIARLGRLFERDRLPPPADLAQLFEARLTDVRANKLAQAWRLAYEQADGKRRRAMLGGLAQVGAGMQGDGAQGTRLFKRFNALPDGLRFLVALRADMLRWRKQVAGLQALDKELEALLSAWFDVGLLELRPLTWDSPASLLEKLILYEAVHEIRSWDDLRHRVAGDRRCYAYFHPQMPDVPLIFVEVAFSAQMADNVQALLDTSAPPQDLDKARWAIFYSISNTQPGLRGISFGNFLLKRVIDRLLQELPKLKFFATLSPIPGFADWLSRLDAQEVEQAVRDKARTRSGAPDGARWVARLARAATGKPSEVVQRAGLRLAARYLQAMRAGQPLDPVARFHLGNGARIERLNWAADTSAKGLAQSCGMMVNYLYELGDLDGNLARLNEGKPQVSRGIARLGLEHHHHHH”, the “soluble on expression in E. coli” value is “not soluble”. Turning to “MGHHHHHHSHMPKSQVKRQEVISELLVTEAAHVRMLRVLHDLFFQPMAECLFFPLEELQNIFPSLDELIEVHSLFLDRLMKRRQESGYLIEEIGDVLLARFDGAEGSWFQKISSRFCSRQSFALEQLKAKQRKDPRFCAFVQEAESRPRCRRLQLKDMIPTEMQRLTKYPLLLQSIGQNTEEPTEREKVELAAECCREILHHVNQAVRDMEDL”, the “soluble on expression in E. coli” value is listed as “not soluble”. As for “MVAYSPIIATYGNRAEQFLETDSDFAKYHAKLNKKLQHLRSRCHLVTKDTKKYSSKNKYGEINSEDYDNKTKLIGVLILLHAERDLALAETLKLRARQRGKLKKSEEKVLSTRLKKACKTADKLVNVTQNEQQWITRAQYLAFAKLVHSEYLINGKRFKRKDNAKISNNLALVFAALEHLKNLSLLAEEVVDNIVNKYQYSLKQYAGNLITTPEINNFIVERVQSDENKDDELVKLLLDNGFNMKKITTSTEDQKVTTNINWRSFNAKIIDAEVAQFLEQGLSIHPTQITQYTQRLSKLEKALDRHEFFIANHDDQDDIDEMVENSSENNQIILAYIKYNILLTSISRERDLFTHLWNQWLKLNTSLPSKLTKYKEMERIVKNLTKYLSDIMELPGVYSDDELLSQLDLCKLYFQLFLNTGCLSVLYQSKGRYMEALALYVDAYRRLENKLSEIESLDEILLPANLLSLNSVRSLQKRIENGGNSVITLAEYEKRNHGGSLGKYDLTVIEKLDSKKILPTDIQLKNLFPLKPKMLPIPSKPTLFDLAFNYITYDKQEPSASQVKDSVTETESISQTPISNEQTEGEPKKKRGFLGLFGR”, the entry is “not soluble”; as for “MADVATKHPMEDEVKKTEASSLVGKLETDVEIKASADKFHHMFAGKPHHVSKASPGNIQGCDLHEGDWGTVGSIVFWNYVHDGEAKVAKERIEAVEPDKNLITFRVIEGDLMKEYKSFLLTIQVTPKPGGPGSIVHWHLEYEKISEEVAHPETLLQFCVEVSKEIDEHLLAEEEEVKTPETPSLVGKLETDVEIKASAEKFHHMFAGKPHHVSKASPGNIQGCDLHEGDWGQVGSIVFWNYVHGKEAKVAKERIEAVEPNKNLITFRVIDGDLMKEYKSFLLTIQVTPKLGGPGSIVHWHLEYEKISEEVAHPETLLQFCVEVSKEIDEHLLAEE”, “soluble”.

With “GAATMMRLARAMRPRPDGLPAQADDLRLHRLVLNDVGPRLNVEALQRIAGNVAAQDSYPTFEAAVAAMRQISTTFGPHTDAQWDELARHIYVRQGGGWVRHFDPALAVPLGAQVAQAFEAGERILWQAYDSLDCPVLIVRGQDSDLLSAATAAEMLGRNPRARLHEVPGVGHAPTLMTPEQIEPIARFLQE”, the “soluble on expression in E. coli” value is “not soluble”. For “MAHHHHHHMMNKNDITIDENNKYIFRASSFYNKDGLLIKSYSWEVREPLGIIILVHGLASHIRFGFLKQNAKIVNNDHAVLIDGDNYYIYEGSWIEKLNKNGYSVYGLDLQGHGESDGYQNLKLHIKDYDDYIYDLIDFIKSVYESIISKKEKKQMYIRDNDIIETVPIYLVGYSMGANIILRALQLLNKSNDNLISKLNIKAFISLAGMISIKNIGSIDSLKYKYLFLPIIKMLSYVCPTYRLRKKHSGFKRFPYINDLMNFDKLRYKKGMTNKLAYEVIKSVYILKKYINDIPQNVPILFIHSRHDSVCAYEEVLSFYNNLYNTNKEIYTLENMDHVVTLEPENEQALNKMLTWIKKCE”, the “soluble on expression in E. coli” value is listed as “soluble”. As for “MPGITFKEDANERGRQIEHWPLLKNGSIFVIADDGTRYFQEDAKHRHGHVYTHGSWLIPMNNQHPYLIFDQTQYDAFKQEESQAGQLPYPKFMTKLVSAPTIAQLAAKLGVPANNLQQTVTDFNHYTEVGRDFEFGRDPQTMRQLDDGPYYAIAALEHHHHHH”, the entry is “soluble”; as for “MNDATPDQLRTGPSRETPRFQQIVQDIKRRIADGSLSEHAALPSERRIAEETGISRMTARRALDALEAEGLVYSADRRGRFVSPKRVSYDVSNLVSFVADAESRGTALGIEVIRAQEGKADPALAARLELEPGAAIHEYTRLFRQDGHAIFVETEYVDARRCPDFLSHDLHQSTTRLLESQYDLVARTGDIVIRMRGAHPEETHLLGLAQSQSGIELTQVIRDASGRPFCFGRQFWRGEMAEFSARAIVGGSIHG”, “not soluble”. For the sequence “MGSDKIHHHHHHSPTQELNSAKIISTLTAHYGERAGLRAKAWFQVLSKAEHVDEQEKLKMVNQFFNLFRFVEDKTLWGDSNYWATPMEFIGVNGGDCEDFSIAKYFTLLQLGVSEDKLRITMVKATTMNQYHMVLAYYPTPSSIPLVLDNLDREIKPATQRNDLLPVYSFNGKQLWLNKEKGRGVLAGSSSRLKKWNDLKHRLGVDRLRQPKLKME”, the “soluble on expression in E. coli” value was “not soluble”.
